Two molecules from patent US20030082745A1 (published 2003) can be followed below.

Test [1] addresses T1, pol κ (primary protein product of POLK; DNA polymerase κ) (human, UniProt Q9UBT6 1-870).
T1 construct: Tested as a yeast two-hybrid fusion (FLAG-modified pGBT9 / pGAD424); also called DINB1 product
T1 sequence (looked up): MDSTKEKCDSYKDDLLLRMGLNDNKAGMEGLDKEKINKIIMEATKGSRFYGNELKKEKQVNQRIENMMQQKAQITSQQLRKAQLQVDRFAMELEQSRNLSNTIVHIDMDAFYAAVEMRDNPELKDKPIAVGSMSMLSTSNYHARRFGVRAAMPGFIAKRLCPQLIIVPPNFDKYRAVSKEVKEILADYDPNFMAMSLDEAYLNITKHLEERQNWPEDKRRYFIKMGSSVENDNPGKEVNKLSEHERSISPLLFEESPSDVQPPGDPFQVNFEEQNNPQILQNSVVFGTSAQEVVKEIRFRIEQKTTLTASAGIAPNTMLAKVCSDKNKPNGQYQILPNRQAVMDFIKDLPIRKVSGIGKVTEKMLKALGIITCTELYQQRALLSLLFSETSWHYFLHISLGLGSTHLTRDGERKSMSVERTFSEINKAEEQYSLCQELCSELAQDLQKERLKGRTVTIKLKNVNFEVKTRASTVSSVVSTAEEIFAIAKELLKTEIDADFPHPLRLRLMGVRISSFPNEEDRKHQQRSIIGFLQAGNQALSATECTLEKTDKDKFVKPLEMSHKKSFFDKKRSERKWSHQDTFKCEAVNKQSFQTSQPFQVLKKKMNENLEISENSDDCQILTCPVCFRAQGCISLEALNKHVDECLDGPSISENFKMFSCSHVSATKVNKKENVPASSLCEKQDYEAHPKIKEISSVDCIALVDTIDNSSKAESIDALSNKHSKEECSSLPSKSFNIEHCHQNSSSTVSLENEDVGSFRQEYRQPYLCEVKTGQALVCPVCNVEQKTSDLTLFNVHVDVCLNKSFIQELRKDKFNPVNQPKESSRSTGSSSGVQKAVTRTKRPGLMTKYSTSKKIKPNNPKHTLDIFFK
In words: yeast two-hybrid.

Test [2] deals with T2, pol κ76 (76 kDa alternatively spliced isoform product of POLK) (human, UniProt Q9UBT6 1-870).
T2 construct: Tested as a yeast two-hybrid fusion (FLAG-modified pGBT9 / pGAD424); also called 76-kDa pol κ isoform
T2 sequence: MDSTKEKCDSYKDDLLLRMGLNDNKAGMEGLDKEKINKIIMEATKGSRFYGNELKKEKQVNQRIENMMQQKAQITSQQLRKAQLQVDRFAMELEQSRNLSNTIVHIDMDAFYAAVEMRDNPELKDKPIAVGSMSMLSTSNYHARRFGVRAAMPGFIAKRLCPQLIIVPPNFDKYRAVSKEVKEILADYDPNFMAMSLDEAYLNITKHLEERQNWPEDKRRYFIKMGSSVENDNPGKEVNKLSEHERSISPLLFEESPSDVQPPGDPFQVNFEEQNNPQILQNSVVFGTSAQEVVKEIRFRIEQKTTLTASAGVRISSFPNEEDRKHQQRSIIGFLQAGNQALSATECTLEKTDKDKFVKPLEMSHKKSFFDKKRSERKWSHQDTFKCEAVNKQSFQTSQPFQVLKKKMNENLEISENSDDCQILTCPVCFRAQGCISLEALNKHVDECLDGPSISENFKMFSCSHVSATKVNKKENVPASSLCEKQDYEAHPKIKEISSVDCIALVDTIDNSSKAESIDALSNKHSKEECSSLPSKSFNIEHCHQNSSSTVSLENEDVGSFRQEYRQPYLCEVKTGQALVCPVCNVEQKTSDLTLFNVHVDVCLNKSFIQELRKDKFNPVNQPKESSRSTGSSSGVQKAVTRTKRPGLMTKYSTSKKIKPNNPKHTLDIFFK
In words: yeast two-hybrid.

B1: GPBPΔ26 (Goodpasture antigen binding protein alternatively spliced product deleted for 26 amino acid residues) (enzyme)
chain: MSDNQSWNSSGSEEDPETESGPPVERCGVLSKWTNYIHGWQDRWVVLKNNALSYYKSEDETEYGCRGSICLSKAVITPHDFDECRFDISVNDSVWYLRAQDPDHRQQWIDAIEQHKTESGYGSESSLRRHGSMVSLVSGASGYSATSTSSFKKGHSLREKLAEMETFRDILCRQVDTLQKYFDACADAVSKDELQRDKVVEDDEDDFPTTRSDGDFLHSTNGNKEKLFPHVTPKGINGIDFKGEAITFKATTAGILATLSHCIELMVKREDSWQKRLDKETEKKRRTEEAYKNAMTELKKKSHFGGPDYEEGPNSLINEEEFFDAVEAALDRQDKIEEQSQSEKVRLHWPTSLPSGDAFSSVGTHRFVQKVEEMVQNHMTYSLQDVGGDANWQLVVEEGEMKVYRREVEENGIVLDPLKATHAVKGVTGHEVCNYFWNVDVRNDWETTIENFHVVETLADNAIIIYQTHKRVWPASQRDVLYLSVIRKIPALTENDPETWIVCNFSVDHDSAPLNNRCVRAKINVAMICQTLVSPPEGNQEISRDNILCKITYVANVNPGGWAPASVLRAVAKREYPKFLKRFTSYVQEKTAGKPILF
notes: Splice isoform of the entry named (26 residues deleted); Two-hybrid construct not described; also called GPBPΔ26
B1: the binding result in test [1] and in test [2] was “no binding” in each case.

B2: GPBP (Goodpasture antigen binding protein) (enzyme, UniProt Q9Y5P4 1-624, looked up)
chain: MSDNQSWNSSGSEEDPETESGPPVERCGVLSKWTNYIHGWQDRWVVLKNNALSYYKSEDETEYGCRGSICLSKAVITPHDFDECRFDISVNDSVWYLRAQDPDHRQQWIDAIEQHKTESGYGSESSLRRHGSMVSLVSGASGYSATSTSSFKKGHSLREKLAEMETFRDILCRQVDTLQKYFDACADAVSKDELQRDKVVEDDEDDFPTTRSDGDFLHSTNGNKEKLFPHVTPKGINGIDFKGEAITFKATTAGILATLSHCIELMVKREDSWQKRLDKETEKKRRTEEAYKNAMTELKKKSHFGGPDYEEGPNSLINEEEFFDAVEAALDRQDKIEEQSQSEKVRLHWPTSLPSGDAFSSVGTHRFVQKPYSRSSSMSSIDLVSASDDVHRFSSQVEEMVQNHMTYSLQDVGGDANWQLVVEEGEMKVYRREVEENGIVLDPLKATHAVKGVTGHEVCNYFWNVDVRNDWETTIENFHVVETLADNAIIIYQTHKRVWPASQRDVLYLSVIRKIPALTENDPETWIVCNFSVDHDSAPLNNRCVRAKINVAMICQTLVSPPEGNQEISRDNILCKITYVANVNPGGWAPASVLRAVAKREYPKFLKRFTSYVQEKTAGKPILF
notes: Two-hybrid construct (fusion domain, limits, species) is not described; also called product of COL4A3BP
With B2, the binding result in test [1] and in test [2] was “no binding” throughout.
